Test results taken from patent US20240182536A1.

Key:
[1] = target: T1, mouse IL-18 receptors on PathHunter U2OS mIL18-NF-kb reporter cells (mouse) (UniProt Q61098); test: cell-based or functional assay
T1 sequence (looked up) 1: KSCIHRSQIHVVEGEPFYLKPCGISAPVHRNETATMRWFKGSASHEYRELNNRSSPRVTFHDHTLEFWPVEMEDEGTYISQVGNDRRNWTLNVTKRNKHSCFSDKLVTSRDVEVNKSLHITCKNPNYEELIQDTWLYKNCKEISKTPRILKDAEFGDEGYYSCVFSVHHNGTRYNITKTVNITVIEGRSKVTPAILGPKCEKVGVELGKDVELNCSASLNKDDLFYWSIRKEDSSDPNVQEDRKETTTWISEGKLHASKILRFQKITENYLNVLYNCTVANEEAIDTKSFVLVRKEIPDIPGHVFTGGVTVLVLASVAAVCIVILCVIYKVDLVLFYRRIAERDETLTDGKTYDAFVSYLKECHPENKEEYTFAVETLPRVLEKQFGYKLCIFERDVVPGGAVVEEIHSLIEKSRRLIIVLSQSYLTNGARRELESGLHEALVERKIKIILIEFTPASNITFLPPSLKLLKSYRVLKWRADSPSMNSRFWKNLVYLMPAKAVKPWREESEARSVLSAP
T1 sequence (looked up) 2: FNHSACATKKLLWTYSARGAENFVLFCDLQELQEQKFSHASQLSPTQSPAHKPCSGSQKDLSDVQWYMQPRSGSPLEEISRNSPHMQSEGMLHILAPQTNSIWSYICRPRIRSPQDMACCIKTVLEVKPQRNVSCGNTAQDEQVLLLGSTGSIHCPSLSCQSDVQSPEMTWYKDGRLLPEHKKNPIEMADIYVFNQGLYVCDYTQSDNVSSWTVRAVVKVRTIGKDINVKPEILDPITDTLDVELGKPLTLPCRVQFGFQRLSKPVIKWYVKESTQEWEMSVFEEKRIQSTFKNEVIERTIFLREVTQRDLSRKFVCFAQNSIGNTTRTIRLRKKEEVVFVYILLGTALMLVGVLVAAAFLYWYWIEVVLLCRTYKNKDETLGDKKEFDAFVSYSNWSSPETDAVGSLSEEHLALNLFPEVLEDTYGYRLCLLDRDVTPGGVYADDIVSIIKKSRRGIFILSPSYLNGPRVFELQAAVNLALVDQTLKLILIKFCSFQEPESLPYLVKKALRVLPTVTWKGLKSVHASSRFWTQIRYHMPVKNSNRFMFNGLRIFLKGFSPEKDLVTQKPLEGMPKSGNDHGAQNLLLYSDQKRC

[2] = target: T2, mouse IL-18 binding protein (mouse) (UniProt Q9Z0M9); test: cell-based or functional assay
T2 sequence (looked up): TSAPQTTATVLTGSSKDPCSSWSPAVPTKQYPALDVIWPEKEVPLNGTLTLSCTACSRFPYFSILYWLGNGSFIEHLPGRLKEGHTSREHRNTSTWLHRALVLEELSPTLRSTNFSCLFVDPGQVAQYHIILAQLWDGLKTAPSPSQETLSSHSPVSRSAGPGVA

mouse IL-18 reporter assay EC50, without mouse IL-18BP [1]: 0.61 pM | mouse IL-18 reporter assay EC50, +Mouse IL-18BP 50 nM [2]: > 500 pM
B1: WT mouse IL-18 (ligand, UniProt P70380 36-192, looked up)
chain: NFGRLHCTTAVIRNINDQVLFVDKRQPVFEDMTDIDQSASEPQTRLIIYMYKDSEVRGLAVTLSVKDSKMSTLSCKNKIISFEEMDPPENIDDIQSDLIFFQKRVPGHNKMEFESSLYEGHFLACQKEDDAFKLILKKKDENGDKSVMFTLTNLHQS
